# Measured values reported in PMC4976026 (The Journal of allergy and clinical immunology, 2016).
# T1: tGFP-tagged Rab27a R82C (human, UniProt P51159 1-221, R82C)
# T1 sequence (looked up): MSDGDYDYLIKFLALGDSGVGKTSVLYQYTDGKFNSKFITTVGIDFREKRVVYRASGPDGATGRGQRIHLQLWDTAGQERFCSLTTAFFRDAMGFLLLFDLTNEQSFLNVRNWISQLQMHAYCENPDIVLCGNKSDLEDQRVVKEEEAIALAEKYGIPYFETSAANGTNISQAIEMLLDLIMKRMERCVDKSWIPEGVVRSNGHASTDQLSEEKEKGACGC
# B1: melanophilin (natural protein, human (endogenous in mel1106), UniProt Q9BV36 1-600, looked up)
# chain: MGKKLDLSKLTDEEAQHVLEVVQRDFDLRRKEEERLEALKGKIKKESSKRELLSDTAHLNETHCARCLQPYQLLVNSKRQCLECGLFTCKSCGRVHPEEQGWICDPCHLARVVKIGSLEWYYEHVKARFKRFGSAKVIRSLHGRLQGGAGPELISEERSGDSDQTDEDGEPGSEAQAQAQPFGSKKKRLLSVHDFDFEGDSDDSTQPQGHSLHLSSVPEARDSPQSLTDESCSEKAAPHKAEGLEEADTGASGCHSHPEEQPTSISPSRHGALAELCPPGGSHRMALGTAAALGSNVIRNEQLPLQYLADVDTSDEESIRAHVMASHHSKRRGRASSESQIFELNKHISAVECLLTYLENTVVPPLAKGLGAGVRTEADVEEEALRRKLEELTSNVSDQETSSEEEEAKDEKAEPNRDKSVGPLPQADPEVGTAAHQTNRQEKSPQDPGDPVQYNRTTDEELSELEDRVAVTASEVQQAESEVSDIESRIAALRAAGLTVKPSGKPRRKSNLPIFLPRVAGKLGKRPEDPNADPSSEAKAMAVPYLLRRKFSNSLKSQGKDDDSFDRKSVYRGSLTQRNPNARKGMASHTFAKPVVAHQS
# Molecular target: T1, tGFP-tagged Rab27a R82C
# Assay: co-IP
binder,measurement,value
B1,fold melanophilin coprecipitated relative to Rab27a D74H,2.7 ± 1.4 fold
